The results in this text go back to patent US20240390468A1 (IMMUNOVACCINE TECHNOLOGIES, published 2024).

The target of one assay is T1, MHC class 1 allele A*02:01.
T1 construct: also called HLA-A2; HLA-A*02:01
Description: REVEAL on-rate assay, HLA-A*02:01.
As to ALSVMGVYV (also called p223; M9-A2-223) [MAGE-A9 223 (MAGE-A9 peptide antigen 223, ALSVMGVYV)], the “On-rate T1/2” value is 9.17 h.
With KVAELVHFL (also called p111) [MAGE-A9 111 (MAGE-A9 peptide antigen 111, KVAELVHFL)], the “On-rate T1/2” value was determined as 9.52 h.
The same measure, in the same setting: the value for LMLGEFLKL [SurA2.M (survivin peptide antigen HLA-A2, LMLGEFLKL)] was 9.36 h; that for FLWGSKAHA (also called p270; M9-A2-270) [MAGE-A9 270 (MAGE-A9 peptide antigen 270, FLWGSKAHA)] was 9.43 h.

For another assay, the target named is T1, MHC class 1 allele A*02:01. The experiment in a line: REVEAL R-score, HLA-A*02:01.
Consider ALSVMGVYV (also called p223; M9-A2-223) [MAGE-A9 223 (MAGE-A9 peptide antigen 223, ALSVMGVYV)], for which the R-score was found to be 26.
On the same count and under the same terms, as for KVAELVHFL (also called p111) [MAGE-A9 111 (MAGE-A9 peptide antigen 111, KVAELVHFL)], the figure is 20.9.
LMLGEFLKL [SurA2.M (survivin peptide antigen HLA-A2, LMLGEFLKL)] had a R-score of 22.1.
On the same count and under the same terms, the value for FLWGSKAHA (also called p270; M9-A2-270) [MAGE-A9 270 (MAGE-A9 peptide antigen 270, FLWGSKAHA)] was 22.1.

In another assay the target is T1, MHC class 1 allele A*02:01. The experiment in a line: REVEAL off-rate assay, HLA-A*02:01.
ALSVMGVYV (also called p223; M9-A2-223) [MAGE-A9 223 (MAGE-A9 peptide antigen 223, ALSVMGVYV)]: the “Off-rate T1/2” value is more than 120 h.
Consider KVAELVHFL (also called p111) [MAGE-A9 111 (MAGE-A9 peptide antigen 111, KVAELVHFL)], for which the “Off-rate T1/2” value was more than 120 h.
LMLGEFLKL [SurA2.M (survivin peptide antigen HLA-A2, LMLGEFLKL)]: the “Off-rate T1/2” value is more than 120 h.
Turning to FLWGSKAHA (also called p270; M9-A2-270) [MAGE-A9 270 (MAGE-A9 peptide antigen 270, FLWGSKAHA)], the “Off-rate T1/2” value is more than 120 h.

For another assay, the target named is T1, MHC class 1 allele A*02:01. The experiment in a line: REVEAL peptide-MHC binding assay, HLA-A*02:01.
ALSVMGVYV (also called p223; M9-A2-223) [MAGE-A9 223 (MAGE-A9 peptide antigen 223, ALSVMGVYV)] came in with an REVEAL score of 199.
For the molecule KVAELVHFL (also called p111) [MAGE-A9 111 (MAGE-A9 peptide antigen 111, KVAELVHFL)], the REVEAL score worked out at 166.
Take LMLGEFLKL [SurA2.M (survivin peptide antigen HLA-A2, LMLGEFLKL)]: the REVEAL score is 172.
FLWGSKAHA (also called p270; M9-A2-270) [MAGE-A9 270 (MAGE-A9 peptide antigen 270, FLWGSKAHA)] showed an REVEAL score of 173.

Another assay has as its target T1, MHC class 1 allele A*02:01. The experiment in a line: REVEAL kinetic score, HLA-A*02:01.
ALSVMGVYV (also called p223; M9-A2-223) [MAGE-A9 223 (MAGE-A9 peptide antigen 223, ALSVMGVYV)]: the Kinetic score stood at 13.1.
Molecule KVAELVHFL (also called p111) [MAGE-A9 111 (MAGE-A9 peptide antigen 111, KVAELVHFL)] came in with a Kinetic score of 12.6.
On the same count and under the same terms, the value for LMLGEFLKL [SurA2.M (survivin peptide antigen HLA-A2, LMLGEFLKL)] was 12.8; that for FLWGSKAHA (also called p270; M9-A2-270) [MAGE-A9 270 (MAGE-A9 peptide antigen 270, FLWGSKAHA)] was 12.7.
